# Data reported in patent publication US7968297B2, “Method for identification, isolation and production of antigens to a specific pathogen” (Intercell AG, priority 2001, dated 2011).
# B1: extracellular matrix and plasma binding protein (protein, listed as Staphylococcus aureus)
# chain: MNSNHAKASVTESVDKKFVVPESGINKIIPAYDEFKNSPKVNVSNLTDNKNFVASEDKLNKIADSSAASKIVDKNFVVPESKLGNIVPEYKEINNRVNVATNNPASQQVDKHFVAKGPEVNRFITQNKVNHHFITTQTHYKKVITSYKSTHVHKHVNHAKDSINKHFIVKPSESPRYTHPSQSLIIKHHFAVPGYHAHKFVTPGHASIKINHFCVVPQINSFKVIPPYGHNSHRMHVPSFQNNTTATHQNAKVNKAYDYKYFYSYKVVKGVKKYFSFSQSNGYKIGKPSLNIKNVNYQYAVPSYSPTHYVPEFKGSLPAPRV
# B2: IsaA, possibly adhesion/aggregation (protein, listed as Staphylococcus aureus)
# chain: MKKTIMASSLAVALGVTGYAAGTGHQAHAAEVNVDQAHLVDLAHNHQDQLNAAPIKDGAYDIHFVKDGFQYNFTSNGTTWSWSYEAANGQTAGFSNVAGADYTTSYNQGSNVQSVSYNAQSSNSNVEAVSAPTYHNYSTSTTSSSVRLSNGNTAGATGSSAAQIMAQRTGVSASTWAAIIARESNGQVNAYNPSGASGLFQTMPGWGPTNTVDQQINAAVKAYKAQGLGAWGF
# B3: CRF1763 (protein)
# chain: FEATKVPHNGSTLINNALNFNEALICLSLKVNIALIIPKIATIRGIVMLGYCGICKKAPRPAITPHTNAIYRNCFKSFTPKLLLHYYT
# B4: ORF1848 (protein, listed as Staphylococcus aureus)
# chain: MKLKSFVTATLALGLLSTVGAALPSHEASADSNNGYKEMTVDGYHTVPYTISVDGITALHRTYFIFPENKNVLYQEIDSKVKNELASQRGVTTEKINNAQTATYTLTLNDGNKKVVNLKKNDDAKNSIDPSTIKQIQIVVK
# B5: CRF0497 (protein)
# chain: LLHHLVLLHLSQLILAQLPYQELTLVRKMDSHVLGLYPLIVYVQFQMFPYHRYQNQSIHRFDLQYFH
# B6: ORF2958 (protein, listed as Staphylococcus aureus)
# chain: MKMKNIAKISLLLGILATGVNTTTEKPVHAEKKPIVISENSKKLKAYYNQPSIEYKNVTGYISFIQPSIKFMNIIDGNSVNNIALIGKDKQHYHTGVHRNLNIFYVNEDKRFEGAKYSIGGITSANDKAVDLIAEARVIKEDHTGEYDYDFFPFKIDKEAMSLKEIDFKLRKYLIDNYGLYGEMSTGKITVKKKYYGKYTFELDKKLQEDRMSDVINVTDIDRIEIKVIKA
# B7: CRF0145 (protein)
# chain: FKYKKNRKIPSIMMQQIKITILYSYLTINKWEYLLNITPNKTVLPATGQKELILAVFTMFKVSKSFSLILTYFFGISQLIIGKKSANHVLTKSIIKYSSLYLIILYLGFLLIFSVSQSNVSTSFQLVLY
# B8: ORF2931 (protein, listed as Staphylococcus aureus)
# chain: MKLKSLAVLSMSAVVLTACGNDTPKDETKSTESNTNQDTNTTKDVIALKDVKTSPEDAVKKAEETYKGQKLKGISFENSNGEWAYKVTQQKSGEESEVLVADKNKKVINKKTEKEDTMNENDNFKYSDAIDYKKAIKEGQKEFDGDIKEWSLEKDDGKLVYNIDLKKGNKKQEVTVDAKNGKVLKSEQDH
# System: antibodies in human patient sera
# Experiment: Western blot reactivity of selected clones with human sera
# Format: binding
# Conditions: 10 to 30 different human patient sera
# Method: For Western blot analysis approximately 10 to 20 μg of total cellular protein was separated by 10% SDS-PAGE and blotted onto HybondC membrane (Amersham Pharmacia Biotech, England). The LamB or FhuA fusion proteins were detected using human serum as the primary antibody at a dilution of 1:5000 and anti human IgG antibodies coupled to HRP at a dilution of 1:5000 as secondary antibodies. Detection was performed using the ECL detection kit (Amersham Pharmacia Biotech, England). Alternatively, rabbit anti FhuA or mouse anti LamB antibodies were used as primary antibodies in combination with the respective secondary antibodies coupled to HRP for the detection of the fusion proteins.
# Subsequent sequencing of a larger number of randomly picked clones (500 to 800 per screen) led to the identification of the gene and the corresponding peptide or protein sequence that was specifically recognized by the human patient serum used for screening. The frequency with which a specific clone is selected reflects at least in part the abundance and/or affinity of the specific antibodies in the serum used for selection and recognizing the epitope presented by this clone. […] All clones that are presented in Table 2 have been verified by Western blot analysis using whole cellular extracts from single clones to show the indicated reactivity with the pool of human serum used in the screen.
# 10 to 30 different human patient sera were subsequently used to evaluate the presence of antibodies against the selected immunogenic peptide sequences that have been discovered in the screen according to the present invention. To eliminate possible cross-reactivity with proteins expressed by E. coli, all sera were pre-adsorbed with a total cellular lysate of E. coli DHa cells expressing FhuA protein.
# This analysis is summarized in Table 2 and as an example shown in FIG. 4 and is indicative of the validity of the present screen.
row,Molecule,antibodies against selected epitope in patients
1,IgG binding protein A [compound 2548],production of antibodies in a large number of patients
2,B1,production of antibodies in a large number of patients
3,B2,production of antibodies in a large number of patients

# Same assay, conditions: clone and its aa region are named in the cell; prefix A/B/C = screen the clone came from
row,Molecule,Serum reactivity with relevant region (positive/total)
1,B2,B: SELAA47(238-259): 12/12

# Same assay, conditions: positive sera / total sera tested; clone and its aa region named in the cell
row,Molecule,Serum reactivity with relevant region (positive/total)
1,ARF0280 (VYMLSSTRFIVRWYNNCNKSTNIINERSSGSIKSDGNSSCFFK),SALAM59(25-43): 1/1
2,B3,C: GSBYI30(1-22): 1/1
3,B4,E: GSBZB15(75-90): 6/41
4,B5,GSBXF31(19-34): 1/7
5,B6,F: SALBB59(154-168): 4/41
6,B7,SALAZ40(81-90): 2/12
7,B8,E: GSBZA13(22-37): 7/41
